This series concerns the molecule itself. Description: single particle fluorescence intensity (stoichiometry) analysis of confocal images; same bilayer and images as a1; event intensity normalised by the monomer brightness measured by FCS and binned into putative monomers, dimers, etc.

B1: Bax 47C labelled with HyLite488 (Bax-HyLite488) (natural protein, human, UniProt Q07812 1-192, looked up)
chain: MDGSGEQPRGGGPTSSEQIMKTGALLLQGFIQDRAGRMGGEAPELACDPVPQDASTKKLSEALKRIGDELDSNMELQRMIAAVDTDSPREVFFRVAADMFSDGNFNWGRVVALFYFASKLVLKALATKVPELIRTIMGWTLDFLRERLLGWIQDQGGWDGLLSYFGTPTWQTVTIFVAGVLTASLTIWKKMG
modifications: HyLite488 bound by maleimide chemistry to the cysteine at position 47
notes: full-length human Bax; the two endogenous cysteines (62 and 126) are replaced with alanine, and leucine 47 is changed to cysteine; Labelling efficiency 81%; also called Bax-HiLyte488
For the protein B1, the binding result is “binds”.

The values above are taken from publication PMC8348223, “Direct Measurement of the Affinity between tBid and Bax in a Mitochondria-Like Membrane” (International Journal of Molecular Sciences, 2021).
